Measurements reported in patent US20190367620A1 (Merck KGaA, published 2019).
Numbering of substitutions follows the chain as printed.

Experiments:
Test in all cases: SPR; free energy change relative to wild-type D2
[1] = target: T1, FGFR1 D2 point mutant G92A (human, UniProt P11362 22-254)
T1 chain: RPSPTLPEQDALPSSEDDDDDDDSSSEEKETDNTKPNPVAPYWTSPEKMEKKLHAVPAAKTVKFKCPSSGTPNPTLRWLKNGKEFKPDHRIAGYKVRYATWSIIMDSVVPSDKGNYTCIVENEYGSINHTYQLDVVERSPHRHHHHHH
Method: (§1) Binding affinities of anti-FGFR1 antibodies to FGFR1 were measured by Surface Plasmon Resonance (SPR) using a GE Healthcare BIAcore 4000 instrument as follows. Goat anti-human Fc antibody (Jackson ImmunoResearch Laboratories #109-005-098) was first immobilized on BIAcore carboxymethylated dextran CM5 chip using direct coupling to free amino groups following the procedure described by the manufacturer. Antibodies were then captured on the CM5 biosensor chip to achieve approximately 200 response units (RU). Binding measurements were performed using the running HBS-EP+ buffer. A 2-fold dilution series of His-tagged FGFR1 proteins were injected at a flow rate of 30 μl/min at 25° C. Association rates (kₒₙ, per mol/s) and dissociation rates (koff, per s) were calculated using a simple 1:1 Langmuir binding model (Biacore 4000 Evaluation Software). The equilibrium dissociation constant (KD, mol) was calculated as the ratio of koff/kₒₙ.
(§2) To obtain a finer, residue-level mapping of the epitope and to complement the HD exchange data, molecular modelling and manual inspection of the crystal structure of FGFR1 [(Beenken et al. 2012); PDB record 3OJV] was used to select solvent exposed residues within and around the epitope identified by HD exchange. The selected residues were mutated either to alanine (large to small) or to glycine if the selected residue was alanine. In total 35 point mutants were designed, expressed and purified in HEK cells, and tested for binding to mAb #A08 using surface plasmon resonance as described in Example 1.8. The affinity of the antibody for wild-type and each mutant was determined and used to calculate the contribution of each epitope residue to the binding energy.
(§3) Variant were compared to wild-type D2. The change in the Gibbs free energy of binding of mutant relative to the wild-type D2 construct (ΔΔGₘᵤₜ) was derived from the ratio of the wild-type and mutant KD.

[2] = target: T2, FGFR1 D2 point mutant S102A (human, UniProt P11362 22-254)
T2 chain: T1 chain with A92G, S102A
Method: as §1, §2, §3

[3] = target: T3, FGFR1 D2 point mutant E50A (human, UniProt P11362 22-254)
T3 chain: T1 chain with E50A, A92G
Method: as §1, §2, §3

[4] = target: T4, FGFR1 D2 point mutant K51A (human, UniProt P11362 22-254)
T4 chain: T1 chain with K51A, A92G
Method: as §1, §2, §3

[5] = target: T5, FGFR1 D2 point mutant A99G (human, UniProt P11362 22-254)
T5 chain: T1 chain with A92G, A99G
Method: as §1, §2, §3

[6] = target: T6, FGFR1 D2 point mutant E47A (human, UniProt P11362 22-254)
T6 chain: T1 chain with E47A, A92G
Method: as §1, §2, §3

[7] = target: T7, FGFR1 D2 point mutant D88A (human, UniProt P11362 22-254)
T7 chain: T1 chain with D88A, A92G
Method: as §1, §2, §3

[8] = target: T8, FGFR1 D2 point mutant Y94A (human, UniProt P11362 22-254)
T8 construct: Uncharacteristic melting curve
T8 chain: T1 chain with A92G, Y94A
Method: as §1, §2, §3

[9] = target: T9, FGFR1 D2 point mutant A58G (human, UniProt P11362 22-254)
T9 chain: T1 chain with A58G, A92G
Method: as §1, §2, §3

[10] = target: T10, FGFR1 D2 point mutant T100A (human, UniProt P11362 22-254)
T10 chain: T1 chain with A92G, T100A
Method: as §1, §2, §3

B1: mAb #A08 (antibody, V domains shown)
VH: EVQLQESGPGLVKPSGTLSLTCAVSGGSISSNNWWSWVRQPPGKGLEWIGEIYHSGSTSYNPSLKSRVTISVDKSKNQFSLKLNSVTAADTAVYYCARGTDWFDPWGQGTLVTVSS
VL: QAVLTQPPSVSVAPGQTARITCGGNNIGSESVHWYQQKPGQAPVLVVYDDSDRPSGIPERFSGSNSGNTATLTISRVEAGDEADYYCQVWDSTSDHRVFGGGTKLTVL
notes: Only variable domains are tied to the name mAb #A08 (hit); also called #A08 hit; mAb #08
B1 showed a ΔΔGmut [1] of 0.21 kcal/mol, a ΔΔGmut [2] of -0.13 kcal/mol and a ΔΔGmut [3] of 0.02 kcal/mol. It also gave a ΔΔGmut [4] of 0.27 kcal/mol, a ΔΔGmut [5] of -0.05 kcal/mol and a ΔΔGmut [6] of 0.17 kcal/mol. For the same binder, the ΔΔGmut [7] was -0.1 kcal/mol, the ΔΔGmut [8] was 0.96 kcal/mol and the ΔΔGmut [9] was 1.44 kcal/mol. It also gave a ΔΔGmut [10] of 0.12 kcal/mol.
